From the supplement of paper PMC10567573

B1: BTBD1 (parent)
chain: TSAEIELPDVEPAAFLALLRFLYS
B2: HSP90AB1 (parent)
chain: EADKNDKAVKDLVVLLFETALLSS

Variants of: B1
Assay: protein stability index of a GFP-peptide fusion (GPS, HEK-293T) (PSI 1-6); higher = more stable
Conditions: c terminus: a fixed tail appended
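Further: lentivirally expressed fusions sorted by FACS into six bins by GFP to DsRed ratio, PSI derived from sequencing read proportions per bin multiplied by bin number.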

Protein stability index: each site, then its substitutions
Y23: W 1.99, H 1.6, P 1.75, N 1.61, V 2.37, G 1.58, T 1.94, K 2.1, F 1.75, R 2.26, Q 2.21, L 2.57, S 1.36, E 1.9, M 2.27, I 1.97
S24: E 1.69, P 2.61, D 1.89, F 2.33, Q 2.33, N 1.78, W 1.89, H 1.72, M 2.37, I 2.32, Y 1.94, L 2.39, C 2.12, A 2.19, V 2.1, R 2.44, G 2.86, K 1.52, T 1.97

Variants of: B2
Assay: as above
Conditions: c terminus: a fixed tail appended

Protein stability index of substitutions, site by site:
A2: R 2.26, H 2.1, P 1.79, M 1.67, S 1.77, F 2.04, C 1.74, W 1.92, D 2.04, L 1.68, Y 1.73, I 1.73, N 2.11, V 2.1, T 2.15, Q 1.54, K 1.68, G 1.33
K7: G 2.17, R 2.02, L 2.47, H 2, F 2.32, Y 2.79, A 1.95, M 2.47, N 1.95, D 2, I 2.77, Q 1.67, S 1.92, P 2.24, C 1.44, T 1.84, W 3.3
A8: E 2.12, I 1.55, F 2.18, D 2.44, G 1.97, C 2.56, H 2.62
N5: T 2.43, R 1.63, S 2, V 1.93, G 1.67, F 1.64, E 2.06, I 1.9, L 1.99, M 2.27, W 2.28, K 2.35, Q 1.8, P 1.59, Y 1.83, H 1.68, A 2.57
D6: C 2.48, M 2.64, E 1.63, L 2.27, F 3.2, N 1.9, V 1.9, W 1.69, R 1.73, H 2.6, I 3.48, K 1.28, T 1.42, A 2.51, G 1.85, Q 2.2, Y 1.69
K4: G 1.34, P 1.63, D 2.13, T 2.06, C 1.87, L 1.75, V 1.85, E 2.2, Y 2.13, F 2.21, A 1.9, N 2.05, H 1.82, M 2.13, R 1.59, W 2.12, I 2, S 1.8, Q 2.09
D3: M 1.25, K 1.58, W 1.86, S 2.65, N 2.13, E 1.65, A 2.57, H 1.98, L 1.86, I 1.9, F 3.79, G 1.58, Y 2.46, Q 1.82, V 2.02, P 2.47, C 1.4, R 1.9, T 1.65
E1: Q 1.87, D 1.86, C 1.88, N 1.89, W 2.3, A 1.45, S 1.78, T 2.58, F 1.36, G 2.37, P 1.95, I 2.56, V 2.54, K 1.61, R 1.69, L 2.02, H 1.94, M 2.69
